Source: US20240400654A1
Where a chain is given by its changes, count along the chain named. In names and notes the source's numbering stands. Several values for one entry are separate records, joined by “and”; a condition that tells them apart may be missing. Equal entries are not always repeated.

B1: KB001 mouse Fab VL T24K (Fab, V domains shown)
VH: EVQLKQSGPGLVAPSQSLSITCTVSGFSLSIYSVHWVRQPPGKGLEWLGMIWGGGSSDYNSALKSRLSISKDNSKSQVFLKMNSLQTDDTAMYYCARNGNFYAMDYWGQGTSVTVSS
VL: QIVLTQSPAIMSASLGERVTMTCKASSSVSSSFLHWYQQKPGSSPQLWIYSTSNLASGVPARFSGSGSGTSYSLTISSMEAEDAATYYCHQYHHSPYIYTFGGGTKLEIK
B2: KB001 mouse Fab VL T24E (Fab, V domains shown)
VH: B1 VH
VL: B1 VL with K24E
B3: KB001 mouse Fab VL T24H (Fab, V domains shown)
VH: B1 VH
VL: B1 VL with K24H
B4: KB001 mouse Fab VL A25F (Fab, V domains shown)
VH: B1 VH
VL: B1 VL with K24T, A25F
B5: KB001 mouse Fab VL A25T (Fab, V domains shown)
VH: B1 VH
VL: B1 VL with K24T, A25T
B6: KB001 mouse Fab VL S26N (Fab, V domains shown)
VH: B1 VH
VL: B1 VL with K24T, S26N
B7: KB001 mouse Fab VL S26D (Fab, V domains shown)
VH: B1 VH
VL: B1 VL with K24T, S26D
B8: KB001 mouse Fab VL S27K (Fab, V domains shown)
VH: B1 VH
VL: B1 VL with K24T, S27K
B9: KB001 mouse Fab VL S28P (Fab, V domains shown)
VH: B1 VH
VL: B1 VL with K24T, S28P
B10: KB001 mouse Fab VL S28W (Fab, V domains shown)
VH: B1 VH
VL: B1 VL with K24T, S28W
B11: KB001 mouse Fab VL S28K (Fab, V domains shown)
VH: B1 VH
VL: B1 VL with K24T, S28K
B12: KB001 mouse Fab VL S28G (Fab, V domains shown)
VH: B1 VH
VL: B1 VL with K24T, S28G
B13: KB001 mouse Fab VL S28V (Fab, V domains shown)
VH: B1 VH
VL: B1 VL with K24T, S28V
B14: KB001 mouse Fab VL S30F (Fab, V domains shown)
VH: B1 VH
VL: B1 VL with K24T, S30F
B15: KB001 mouse Fab VL S30G (Fab, V domains shown)
VH: B1 VH
VL: B1 VL with K24T, S30G
B16: KB001 mouse Fab VL S31P (Fab, V domains shown)
VH: B1 VH
VL: B1 VL with K24T, S31P
B17: KB001 mouse Fab VL S31E (Fab, V domains shown)
VH: B1 VH
VL: B1 VL with K24T, S31E
B18: KB001 mouse Fab VL S31Y (Fab, V domains shown)
VH: B1 VH
VL: B1 VL with K24T, S31Y
B19: KB001 mouse Fab VL S31F (Fab, V domains shown)
VH: B1 VH
VL: B1 VL with K24T, S31F
B20: KB001 mouse Fab VL S31T (Fab, V domains shown)
VH: B1 VH
VL: B1 VL with K24T, S31T
B21: KB001 mouse Fab VL S51G (Fab, V domains shown)
VH: B1 VH
VL: B1 VL with K24T, S51G
B22: KB001 mouse Fab VL T52A (Fab, V domains shown)
VH: B1 VH
VL: B1 VL with K24T, T52A
B23: KB001 mouse Fab VL T52S (Fab, V domains shown)
VH: B1 VH
VL: B1 VL with K24T, T52S
B24: KB001 mouse Fab VL S53N (Fab, V domains shown)
VH: B1 VH
VL: B1 VL with K24T, S53N
B25: KB001 mouse Fab VL S53H (Fab, V domains shown)
VH: B1 VH
VL: B1 VL with K24T, S53H
B26: KB001 mouse Fab VL S53Q (Fab, V domains shown)
VH: B1 VH
VL: B1 VL with K24T, S53Q
B27: KB001 mouse Fab VL S53K (Fab, V domains shown)
VH: B1 VH
VL: B1 VL with K24T, S53K
B28: KB001 mouse Fab VL N54Q (Fab, V domains shown)
VH: B1 VH
VL: B1 VL with K24T, N54Q
B29: KB001 mouse Fab VL N54R (Fab, V domains shown)
VH: B1 VH
VL: B1 VL with K24T, N54R
B30: KB001 mouse Fab VL N54S (Fab, V domains shown)
VH: B1 VH
VL: B1 VL with K24T, N54S
B31: KB001 mouse Fab VL L55N (Fab, V domains shown)
VH: B1 VH
VL: B1 VL with K24T, L55N
B32: KB001 mouse Fab VL L55P (Fab, V domains shown)
VH: B1 VH
VL: B1 VL with K24T, L55P
B33: KB001 mouse Fab VL S57N (Fab, V domains shown)
VH: B1 VH
VL: B1 VL with K24T, S57N
B34: KB001 mouse Fab VL S57R (Fab, V domains shown)
VH: B1 VH
VL: B1 VL with K24T, S57R
B35: KB001 mouse Fab VL S57T (Fab, V domains shown)
VH: B1 VH
VL: B1 VL with K24T, S57T
B36: KB001 mouse Fab VL S57E (Fab, V domains shown)
VH: B1 VH
VL: B1 VL with K24T, S57E
B37: KB001 mouse Fab VL S57P (Fab, V domains shown)
VH: B1 VH
VL: B1 VL with K24T, S57P
B38: KB001 mouse Fab VL S57Q (Fab, V domains shown)
VH: B1 VH
VL: B1 VL with K24T, S57Q
B39: KB001 mouse Fab VL S57G (Fab, V domains shown)
VH: B1 VH
VL: B1 VL with K24T, S57G
B40: KB001 mouse Fab VL H90W (Fab, V domains shown)
VH: B1 VH
VL: B1 VL with K24T, H90W
B41: KB001 mouse Fab VL S95Q (Fab, V domains shown)
VH: B1 VH
VL: B1 VL with K24T, S95Q

What follows are binders tested against HRgpA-6H (Porphyromonas gingivalis) (UniProt P28784) (assay: ELISA, coated HRgpA-6H).
UniProt P28784, sequence (P28784 228-860 limits assumed): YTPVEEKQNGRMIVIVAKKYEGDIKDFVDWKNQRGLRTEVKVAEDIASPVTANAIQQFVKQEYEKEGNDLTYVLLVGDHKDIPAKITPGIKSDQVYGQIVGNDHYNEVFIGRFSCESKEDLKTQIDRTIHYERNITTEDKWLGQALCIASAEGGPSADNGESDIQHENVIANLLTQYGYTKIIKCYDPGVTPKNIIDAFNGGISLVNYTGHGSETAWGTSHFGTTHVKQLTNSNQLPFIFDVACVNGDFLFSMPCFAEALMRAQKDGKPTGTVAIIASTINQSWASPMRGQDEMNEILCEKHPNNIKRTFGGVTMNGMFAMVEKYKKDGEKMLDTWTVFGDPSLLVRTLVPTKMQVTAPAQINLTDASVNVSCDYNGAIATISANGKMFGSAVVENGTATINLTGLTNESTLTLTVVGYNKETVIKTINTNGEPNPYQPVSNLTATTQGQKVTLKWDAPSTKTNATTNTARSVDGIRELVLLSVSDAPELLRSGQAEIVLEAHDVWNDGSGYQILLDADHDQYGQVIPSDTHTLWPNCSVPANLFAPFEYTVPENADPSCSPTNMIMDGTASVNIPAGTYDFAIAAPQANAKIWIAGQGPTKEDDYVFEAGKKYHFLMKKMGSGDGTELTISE
With B1 the OD450 nm was 0.797 and 0.734 and the Ratio OD(Variant)/OD(WT) was 1.04 and 0.954. B2 was tested, and the OD450 nm was 0.852 and 0.81 and the Ratio OD(Variant)/OD(WT) was 1.11 and 1.05. In the case of B3, the OD450 nm is reported as 0.795 and the Ratio OD(Variant)/OD(WT) is reported as 1.03. For B4, the OD450 nm was 0.818 and 0.827 and 0.775 and the Ratio OD(Variant)/OD(WT) was 1.04 and 1.06 and 0.99. With B5 the OD450 nm was 0.823 and 0.801 and the Ratio OD(Variant)/OD(WT) was 1.05 and 1.02. With B6 the OD450 nm was 0.823 and 0.749 and the Ratio OD(Variant)/OD(WT) was 1.05 and 0.957. B7 showed an OD450 nm of 0.821 and a Ratio OD(Variant)/OD(WT) of 1.05. In the case of B8, the OD450 nm is reported as 0.783 and 0.745 and 0.697 and the Ratio OD(Variant)/OD(WT) is reported as 1.04 and 0.993 and 0.929. With B9 the OD450 nm was 0.808 and 0.726 and the Ratio OD(Variant)/OD(WT) was 1.08 and 0.967. B10 was tested, and the OD450 nm was 0.817 and 0.745 and the Ratio OD(Variant)/OD(WT) was 1.09 and 0.993. In the case of B11, the OD450 nm is reported as 0.801 and the Ratio OD(Variant)/OD(WT) is reported as 1.07. With B12 the OD450 nm was 0.818 and the Ratio OD(Variant)/OD(WT) was 1.09. For B13, the OD450 nm was 0.786 and 0.731 and 0.717 and the Ratio OD(Variant)/OD(WT) was 1.05 and 0.974 and 0.955. Binder B14 has an OD450 nm of 0.911 and a Ratio OD(Variant)/OD(WT) of 1.06. For B15, the OD450 nm was 0.916 and 0.858 and the Ratio OD(Variant)/OD(WT) was 1.06 and 0.995. In the case of B16, the OD450 nm is reported as 0.87 and 0.875 and 0.856 and the Ratio OD(Variant)/OD(WT) is reported as 1.03 and 1.04 and 1.01. In the case of B17, the OD450 nm is reported as 0.903 and 0.798 and the Ratio OD(Variant)/OD(WT) is reported as 1.07 and 0.944. With B18 the OD450 nm was 0.849 and the Ratio OD(Variant)/OD(WT) was 1. In the case of B19, the OD450 nm is reported as 0.854 and 0.688 and 0.693 and the Ratio OD(Variant)/OD(WT) is reported as 1.01 and 0.814 and 0.82. With B20 the OD450 nm was 0.859 and 0.74 and 0.782 and the Ratio OD(Variant)/OD(WT) was 1.02 and 0.876 and 0.925. With B21 the OD450 nm was 0.915 and 0.777 and 0.851 and the Ratio OD(Variant)/OD(WT) was 1.05 and 0.888 and 0.973. For B22, the Ratio OD(Variant)/OD(WT) was 1.17 and 1.08 (2×) and 0.993. For B23, the OD450 nm was 0.833 and the Ratio OD(Variant)/OD(WT) was 1.06. In the case of B24, the OD450 nm is reported as 0.838 and 0.707 and the Ratio OD(Variant)/OD(WT) is reported as 1.06 and 0.898. B25 was tested, and the OD450 nm was 0.827 and 0.777 and the Ratio OD(Variant)/OD(WT) was 1.05 and 0.987. In the case of B26, the OD450 nm is reported as 0.835 and 0.751 and 0.726 and the Ratio OD(Variant)/OD(WT) is reported as 1.06 and 0.954 and 0.922. Work on B27 yielded an OD450 nm of 0.841 and a Ratio OD(Variant)/OD(WT) of 1.07. B28 gave an OD450 nm of 0.868 and a Ratio OD(Variant)/OD(WT) of 1.11. B29 was tested, and the OD450 nm was 0.876 and the Ratio OD(Variant)/OD(WT) was 1.12. In the case of B30, the OD450 nm is reported as 0.835 and 0.732 and 0.776 and the Ratio OD(Variant)/OD(WT) is reported as 1.07 and 0.934 and 0.99. For B31, the OD450 nm was 0.816 and 0.815 and 0.777 and the Ratio OD(Variant)/OD(WT) was 1.04 (2×) and 0.992. In the case of B32, the OD450 nm is reported as 0.827 and 0.764 and 0.724 and the Ratio OD(Variant)/OD(WT) is reported as 1.06 and 0.975 and 0.924. With B33 the OD450 nm was 0.857 and the Ratio OD(Variant)/OD(WT) was 1.05. With B34 the OD450 nm was 0.845 and 0.849 and the Ratio OD(Variant)/OD(WT) was 1.04. B35 showed an OD450 nm of 0.843 and a Ratio OD(Variant)/OD(WT) of 1.03. B36 was tested, and the OD450 nm was 0.843 and the Ratio OD(Variant)/OD(WT) was 1.03. Binder B37 has an OD450 nm of 0.858 and a Ratio OD(Variant)/OD(WT) of 1.05. With B38 the OD450 nm was 0.858 and 0.838 and the Ratio OD(Variant)/OD(WT) was 1.05 and 1.03. For B39, the OD450 nm was 0.873 and 0.825 and the Ratio OD(Variant)/OD(WT) was 1.07 and 1.01. Binder B40 has an OD450 nm of 0.913 and a Ratio OD(Variant)/OD(WT) of 1.06. For B41, the OD450 nm was 0.931 and 0.936 and 0.927 and the Ratio OD(Variant)/OD(WT) was 1.01 (2×) and 1.02.
